Source: paper doi:10.1101/2020.08.31.274704
pIC50, pKd: −log10 of the molar value.

Columns and labels:
[1] = target: prefusion stabilized trimeric SARS-CoV-2 spike protein ectodomain (S-ECD) (SARS-CoV-2) (UniProt P0DTC2); experiment: BLI
[2] = target: prefusion stabilized trimeric SARS-CoV-2 spike protein ectodomain (S-ECD) (SARS-CoV-2) (UniProt P0DTC2); experiment: ELISA

With “ACE2 monomer, ACE2(1-615)-(GGGGS)5-HRV3C-eGFP-His8 (from UniProt Q9BYF1-1 18-615) (domain or fragment)” as the substance, how does the pKd [1] read?
Its pKd is 7.60.

And the pIC50 [2]?
The pIC50 was 7.57.
